# Experimental data taken from patent US20140087995A1 (published 2014).
# Numbered stars: 1 amine (or outer) side, 2 acyl side, 3 side chain; on linkers, the order of the positions; unused ones are H or OH. Bridge positions count the residues as written; N and C are the ends. Side chains are listed from the residue outwards. Ends that are not written are not given here. * marks the point of attachment. C20 diacid = O=C(O)CCCCCCCCCCCCCCCCCCC(=O)*; γGlu = O=C(O)[C@H](CCC(=O)[*:2])N[*:1]
# T1: human amylin 3(a) receptor (human calcitonin receptor co-expressed with RAMP-3) (human, UniProt P30988 25-474; O60896 24-148, limits assumed)
# T1 sequence (looked up) 1: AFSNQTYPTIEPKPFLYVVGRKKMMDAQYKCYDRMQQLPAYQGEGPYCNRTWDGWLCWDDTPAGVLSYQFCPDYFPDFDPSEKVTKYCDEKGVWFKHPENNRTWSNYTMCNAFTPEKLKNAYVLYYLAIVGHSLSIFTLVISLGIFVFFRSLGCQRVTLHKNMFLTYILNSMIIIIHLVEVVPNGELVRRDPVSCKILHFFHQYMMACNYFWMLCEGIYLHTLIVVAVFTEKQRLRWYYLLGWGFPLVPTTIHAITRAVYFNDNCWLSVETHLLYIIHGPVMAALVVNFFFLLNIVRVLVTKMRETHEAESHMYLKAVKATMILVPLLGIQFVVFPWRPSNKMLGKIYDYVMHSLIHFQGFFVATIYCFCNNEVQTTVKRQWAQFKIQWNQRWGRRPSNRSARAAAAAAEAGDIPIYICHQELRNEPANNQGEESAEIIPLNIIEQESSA
# T1 sequence (looked up) 2: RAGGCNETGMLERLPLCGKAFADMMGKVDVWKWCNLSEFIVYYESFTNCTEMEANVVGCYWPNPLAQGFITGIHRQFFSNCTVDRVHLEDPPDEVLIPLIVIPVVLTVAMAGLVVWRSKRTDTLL
# B1: N^ε1-[(4S)-4-carboxy-4-(19-carboxynonadecanoylamino)butanoyl]-[Arg17,Pro21,Pro27,Lys35]-h-amylin (peptide)
# peptide: K([γGlu-C20 diacid])CNTATCATQRLANFLRHSSPNFGAIPSSTNVGSKTY-NH2
# modifications: disulfide 2-7; N-terminus assumed
# SMILES: CC[C@H](C)[C@H](NC(=O)[C@H](C)NC(=O)CNC(=O)[C@H](Cc1ccccc1)NC(=O)[C@H](CC(N)=O)NC(=O)[C@@H]1CCCN1C(=O)[C@H](CO)NC(=O)[C@H](CO)NC(=O)[C@H](Cc1c[nH]cn1)NC(=O)[C@H](CCCNC(=N)N)NC(=O)[C@H](CC(C)C)NC(=O)[C@H](Cc1ccccc1)NC(=O)[C@H](CC(N)=O)NC(=O)[C@H](C)NC(=O)[C@H](CC(C)C)NC(=O)[C@H](CCCNC(=N)N)NC(=O)[C@H](CCC(N)=O)NC(=O)[C@@H](NC(=O)[C@H](C)NC(=O)[C@@H]1CSSC[C@H](NC(=O)[C@@H](N)CCCCNC(=O)CC[C@H](NC(=O)CCCCCCCCCCCCCCCCCCC(=O)O)C(=O)O)C(=O)N[C@@H](CC(N)=O)C(=O)N[C@@H]([C@@H](C)O)C(=O)N[C@@H](C)C(=O)N[C@@H]([C@@H](C)O)C(=O)N1)[C@@H](C)O)C(=O)N1CCC[C@H]1C(=O)N[C@@H](CO)C(=O)N[C@@H](CO)C(=O)N[C@H](C(=O)N[C@@H](CC(N)=O)C(=O)N[C@H](C(=O)NCC(=O)N[C@@H](CO)C(=O)N[C@@H](CCCCN)C(=O)N[C@H](C(=O)N[C@@H](Cc1ccc(O)cc1)C(N)=O)[C@@H](C)O)C(C)C)[C@@H](C)O
# notes: also called compound 35
# B2: N^ε1-[(4S)-4-carboxy-4-[[(4S)-4-carboxy-4-(19-carboxynonadecanoylamino)butanoyl]amino]butanoyl]-[Asp14,Arg17,Pro21,Pro27,Asp35]-h-amylin (peptide)
# peptide: K([γGlu-γGlu-C20 diacid])CNTATCATQRLADFLRHSSPNFGAIPSSTNVGSDTY-NH2
# modifications: disulfide 2-7; N-terminus assumed
# SMILES: CC[C@H](C)[C@H](NC(=O)[C@H](C)NC(=O)CNC(=O)[C@H](Cc1ccccc1)NC(=O)[C@H](CC(N)=O)NC(=O)[C@@H]1CCCN1C(=O)[C@H](CO)NC(=O)[C@H](CO)NC(=O)[C@H](Cc1c[nH]cn1)NC(=O)[C@H](CCCNC(=N)N)NC(=O)[C@H](CC(C)C)NC(=O)[C@H](Cc1ccccc1)NC(=O)[C@H](CC(=O)O)NC(=O)[C@H](C)NC(=O)[C@H](CC(C)C)NC(=O)[C@H](CCCNC(=N)N)NC(=O)[C@H](CCC(N)=O)NC(=O)[C@@H](NC(=O)[C@H](C)NC(=O)[C@@H]1CSSC[C@H](NC(=O)[C@@H](N)CCCCNC(=O)CC[C@H](NC(=O)CC[C@H](NC(=O)CCCCCCCCCCCCCCCCCCC(=O)O)C(=O)O)C(=O)O)C(=O)N[C@@H](CC(N)=O)C(=O)N[C@@H]([C@@H](C)O)C(=O)N[C@@H](C)C(=O)N[C@@H]([C@@H](C)O)C(=O)N1)[C@@H](C)O)C(=O)N1CCC[C@H]1C(=O)N[C@@H](CO)C(=O)N[C@@H](CO)C(=O)N[C@H](C(=O)N[C@@H](CC(N)=O)C(=O)N[C@H](C(=O)NCC(=O)N[C@@H](CO)C(=O)N[C@@H](CC(=O)O)C(=O)N[C@H](C(=O)N[C@@H](Cc1ccc(O)cc1)C(N)=O)[C@@H](C)O)C(C)C)[C@@H](C)O
# notes: also called compound 2
# B3: N^ε1-[(4S)-4-carboxy-4-(19-carboxynonadecanoylamino)butanoyl]-[His14,Arg17,Pro21,Pro27,His35]-h-amylin (peptide)
# peptide: K([γGlu-C20 diacid])CNTATCATQRLAHFLRHSSPNFGAIPSSTNVGSHTY-NH2
# modifications: disulfide 2-7; N-terminus assumed
# SMILES: CC[C@H](C)[C@H](NC(=O)[C@H](C)NC(=O)CNC(=O)[C@H](Cc1ccccc1)NC(=O)[C@H](CC(N)=O)NC(=O)[C@@H]1CCCN1C(=O)[C@H](CO)NC(=O)[C@H](CO)NC(=O)[C@H](Cc1c[nH]cn1)NC(=O)[C@H](CCCNC(=N)N)NC(=O)[C@H](CC(C)C)NC(=O)[C@H](Cc1ccccc1)NC(=O)[C@H](Cc1c[nH]cn1)NC(=O)[C@H](C)NC(=O)[C@H](CC(C)C)NC(=O)[C@H](CCCNC(=N)N)NC(=O)[C@H](CCC(N)=O)NC(=O)[C@@H](NC(=O)[C@H](C)NC(=O)[C@@H]1CSSC[C@H](NC(=O)[C@@H](N)CCCCNC(=O)CC[C@H](NC(=O)CCCCCCCCCCCCCCCCCCC(=O)O)C(=O)O)C(=O)N[C@@H](CC(N)=O)C(=O)N[C@@H]([C@@H](C)O)C(=O)N[C@@H](C)C(=O)N[C@@H]([C@@H](C)O)C(=O)N1)[C@@H](C)O)C(=O)N1CCC[C@H]1C(=O)N[C@@H](CO)C(=O)N[C@@H](CO)C(=O)N[C@H](C(=O)N[C@@H](CC(N)=O)C(=O)N[C@H](C(=O)NCC(=O)N[C@@H](CO)C(=O)N[C@@H](Cc1c[nH]cn1)C(=O)N[C@H](C(=O)N[C@@H](Cc1ccc(O)cc1)C(N)=O)[C@@H](C)O)C(C)C)[C@@H](C)O
# notes: also called compound 66
# B4: N^ε1-[(4S)-4-carboxy-4-(19-carboxynonadecanoylamino)butanoyl]-[His14,Arg17,Pro21,Pro27]-h-amylin (peptide)
# peptide: K([γGlu-C20 diacid])CNTATCATQRLAHFLRHSSPNFGAIPSSTNVGSNTY-NH2
# modifications: disulfide 2-7; N-terminus assumed
# SMILES: CC[C@H](C)[C@H](NC(=O)[C@H](C)NC(=O)CNC(=O)[C@H](Cc1ccccc1)NC(=O)[C@H](CC(N)=O)NC(=O)[C@@H]1CCCN1C(=O)[C@H](CO)NC(=O)[C@H](CO)NC(=O)[C@H](Cc1c[nH]cn1)NC(=O)[C@H](CCCNC(=N)N)NC(=O)[C@H](CC(C)C)NC(=O)[C@H](Cc1ccccc1)NC(=O)[C@H](Cc1c[nH]cn1)NC(=O)[C@H](C)NC(=O)[C@H](CC(C)C)NC(=O)[C@H](CCCNC(=N)N)NC(=O)[C@H](CCC(N)=O)NC(=O)[C@@H](NC(=O)[C@H](C)NC(=O)[C@@H]1CSSC[C@H](NC(=O)[C@@H](N)CCCCNC(=O)CC[C@H](NC(=O)CCCCCCCCCCCCCCCCCCC(=O)O)C(=O)O)C(=O)N[C@@H](CC(N)=O)C(=O)N[C@@H]([C@@H](C)O)C(=O)N[C@@H](C)C(=O)N[C@@H]([C@@H](C)O)C(=O)N1)[C@@H](C)O)C(=O)N1CCC[C@H]1C(=O)N[C@@H](CO)C(=O)N[C@@H](CO)C(=O)N[C@H](C(=O)N[C@@H](CC(N)=O)C(=O)N[C@H](C(=O)NCC(=O)N[C@@H](CO)C(=O)N[C@@H](CC(N)=O)C(=O)N[C@H](C(=O)N[C@@H](Cc1ccc(O)cc1)C(N)=O)[C@@H](C)O)C(C)C)[C@@H](C)O
# notes: also called compound 70
# B5: N^ε1-[(4S)-4-carboxy-4-[[(4S)-4-carboxy-4-(19-carboxynonadecanoylamino)butanoyl]amino]butanoyl]-[Arg17,Pro21,Pro27,His34]-h-amylin (peptide)
# peptide: K([γGlu-γGlu-C20 diacid])CNTATCATQRLANFLRHSSPNFGAIPSSTNVGHNTY-NH2
# modifications: disulfide 2-7; N-terminus assumed
# SMILES: CC[C@H](C)[C@H](NC(=O)[C@H](C)NC(=O)CNC(=O)[C@H](Cc1ccccc1)NC(=O)[C@H](CC(N)=O)NC(=O)[C@@H]1CCCN1C(=O)[C@H](CO)NC(=O)[C@H](CO)NC(=O)[C@H](Cc1c[nH]cn1)NC(=O)[C@H](CCCNC(=N)N)NC(=O)[C@H](CC(C)C)NC(=O)[C@H](Cc1ccccc1)NC(=O)[C@H](CC(N)=O)NC(=O)[C@H](C)NC(=O)[C@H](CC(C)C)NC(=O)[C@H](CCCNC(=N)N)NC(=O)[C@H](CCC(N)=O)NC(=O)[C@@H](NC(=O)[C@H](C)NC(=O)[C@@H]1CSSC[C@H](NC(=O)[C@@H](N)CCCCNC(=O)CC[C@H](NC(=O)CC[C@H](NC(=O)CCCCCCCCCCCCCCCCCCC(=O)O)C(=O)O)C(=O)O)C(=O)N[C@@H](CC(N)=O)C(=O)N[C@@H]([C@@H](C)O)C(=O)N[C@@H](C)C(=O)N[C@@H]([C@@H](C)O)C(=O)N1)[C@@H](C)O)C(=O)N1CCC[C@H]1C(=O)N[C@@H](CO)C(=O)N[C@@H](CO)C(=O)N[C@H](C(=O)N[C@@H](CC(N)=O)C(=O)N[C@H](C(=O)NCC(=O)N[C@@H](Cc1c[nH]cn1)C(=O)N[C@@H](CC(N)=O)C(=O)N[C@H](C(=O)N[C@@H](Cc1ccc(O)cc1)C(N)=O)[C@@H](C)O)C(C)C)[C@@H](C)O
# notes: also called compound 86
# B6: N^ε1-[(4S)-4-carboxy-4-(19-carboxynonadecanoylamino)butanoyl]-[His14,Arg17,Pro21,Pro27,Arg34]-h-amylin (peptide)
# peptide: K([γGlu-C20 diacid])CNTATCATQRLAHFLRHSSPNFGAIPSSTNVGRNTY-NH2
# modifications: disulfide 2-7; N-terminus assumed
# SMILES: CC[C@H](C)[C@H](NC(=O)[C@H](C)NC(=O)CNC(=O)[C@H](Cc1ccccc1)NC(=O)[C@H](CC(N)=O)NC(=O)[C@@H]1CCCN1C(=O)[C@H](CO)NC(=O)[C@H](CO)NC(=O)[C@H](Cc1c[nH]cn1)NC(=O)[C@H](CCCNC(=N)N)NC(=O)[C@H](CC(C)C)NC(=O)[C@H](Cc1ccccc1)NC(=O)[C@H](Cc1c[nH]cn1)NC(=O)[C@H](C)NC(=O)[C@H](CC(C)C)NC(=O)[C@H](CCCNC(=N)N)NC(=O)[C@H](CCC(N)=O)NC(=O)[C@@H](NC(=O)[C@H](C)NC(=O)[C@@H]1CSSC[C@H](NC(=O)[C@@H](N)CCCCNC(=O)CC[C@H](NC(=O)CCCCCCCCCCCCCCCCCCC(=O)O)C(=O)O)C(=O)N[C@@H](CC(N)=O)C(=O)N[C@@H]([C@@H](C)O)C(=O)N[C@@H](C)C(=O)N[C@@H]([C@@H](C)O)C(=O)N1)[C@@H](C)O)C(=O)N1CCC[C@H]1C(=O)N[C@@H](CO)C(=O)N[C@@H](CO)C(=O)N[C@H](C(=O)N[C@@H](CC(N)=O)C(=O)N[C@H](C(=O)NCC(=O)N[C@@H](CCCNC(=N)N)C(=O)N[C@@H](CC(N)=O)C(=O)N[C@H](C(=O)N[C@@H](Cc1ccc(O)cc1)C(N)=O)[C@@H](C)O)C(C)C)[C@@H](C)O
# notes: also called compound 85
# Target: T1, human amylin 3(a) receptor (human …)
# Assay: cell-based or functional assay
Binder,Ratio hCT/hAmylin funct. (hCTR EC50 over hAmylin-R EC50),hAmylin-R funct. EC50 (pM)
B1,15,364 pM
B2,16.4,182 pM
B3,20.1,27 pM
B4,17.9,40 pM
B5,64.4,298 pM
B6,26.6,146 pM
